Where no end group is shown, it is not given here. [ ]: non-standard residue; d: D form. Aib = CC(C)(N)C(=O)O
T1: human glucose-dependent insulinotropic polypeptide receptor (human, UniProt P48546 22-466)
T1 sequence (looked up): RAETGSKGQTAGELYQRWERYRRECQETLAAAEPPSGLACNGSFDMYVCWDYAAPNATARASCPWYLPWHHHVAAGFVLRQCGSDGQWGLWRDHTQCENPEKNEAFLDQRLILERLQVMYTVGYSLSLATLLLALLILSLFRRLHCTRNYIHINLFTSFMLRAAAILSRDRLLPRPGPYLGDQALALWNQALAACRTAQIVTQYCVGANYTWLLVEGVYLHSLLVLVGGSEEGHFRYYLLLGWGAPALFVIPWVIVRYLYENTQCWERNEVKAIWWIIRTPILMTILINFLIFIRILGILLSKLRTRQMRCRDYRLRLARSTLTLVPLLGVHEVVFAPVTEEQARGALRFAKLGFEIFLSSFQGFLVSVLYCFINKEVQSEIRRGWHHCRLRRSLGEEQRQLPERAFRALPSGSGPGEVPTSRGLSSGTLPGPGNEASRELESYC

B1: Compound No. 25 (peptide)
peptide: H[Aib]HGTFTSDYSYYLEKQAA[Aib]EFVQWLLEGGPSSGAPPPS-NH2
modifications: not fully specified (residue 16); printed as H-Aib-HGTFTSDYSYYLE-K[(2S)-2-amino-6-[[(2S)-2-amino-6-[[(4S)-4-carboxy-4-[[4-[(19-carboxynonadecanoylamino)methyl]cyclohexanecarbonyl]amino]butanoyl]amino]hexanoyl]amino]hexanoyl]-QAA-Aib-EFVQWLLEGGPSSGAPPPS-NH2
B2: Compound No. 22 (peptide)
peptide: H[Aib]HGTFTSDYSIYLEKQAA[Aib]EFVQWLLEGGPSSGAPPPS-NH2
modifications: not fully specified (residue 16); printed as H-Aib-HGTFTSDYSIYLE-K[(2S)-2-amino-6-[[(2S)-2-amino-6-[[(4S)-4-carboxy-4-(19-carboxynonadecanoylamino)butanoyl]amino]hexanoyl]amino]hexanoyl]-QAA-Aib-EFVQWLLEGGPSSGAPPPS-NH2
B3: Compound No. 29 (peptide)
peptide: H[Aib]HGTFTSDYSYYLEKQYA[Aib]EFVQWLLEGGPSSGAPPPS-NH2
modifications: not fully specified (residue 16); printed as H-Aib-HGTFTSDYSYYLE-K[(2S)-2-amino-6-[[(2S)-2-amino-6-[[(4S)-4-carboxy-4-(19-carboxynonadecanoylamino)butanoyl]amino]hexanoyl]amino]hexanoyl]-QYA-Aib-EFVQWLLEGGPSSGAPPPS-NH2
B4: Compound No. 20 (peptide)
peptide: Y[Aib]QGTFTSDYSIYLEKQAAQEFVQWLLEGGPSSGAPPPS-NH2
modifications: not fully specified (residue 16); printed as Y-Aib-QGTFTSDYSIYLE-K[2-[2-[2-[[2-[2-[2-[[(4S)-4-carboxy-4-[[4-[(19-carboxynonadecanoylamino)methyl]cyclohexanecarbonyl]amino]butanoyl]amino]ethoxy]ethoxy]acetyl]amino]ethoxy]ethoxy]acetyl]-QAAQEFVQWLLEGGPSSGAPPPS-NH2
B5: Compound No. 24 (peptide)
peptide: H[Aib]HGTFTSDYSIYLEKQYA[Aib]EFVQWLLEGGPSSGAPPPS-NH2
modifications: not fully specified (residue 16); printed as H-Aib-HGTFTSDYSIYLE-K[(2S)-2-amino-6-[[(2S)-2-amino-6-[[(4S)-4-carboxy-4-(19-carboxynonadecanoylamino)butanoyl]amino]hexanoyl]amino]hexanoyl]-QYA-Aib-EFVQWLLEGGPSSGAPPPS-NH2
B6: Compound No. 27 (peptide)
peptide: H[Aib]HGTFTSDYSIYLEKQAAEEFVQWLLEGGPSSGAPPPS-NH2
modifications: not fully specified (residue 16); printed as H-Aib-HGTFTSDYSIYLE-K[(2S)-2-amino-6-[[(2S)-2-amino-6-[[(4S)-4-carboxy-4-(19-carboxynonadecanoylamino)butanoyl]amino]hexanoyl]amino]hexanoyl]-QAAEEFVQWLLEGGPSSGAPPPS-NH2
B7: Compound No. 23 (peptide)
peptide: H[Aib]HGTFTSDYSIYLEKQAAQEFVQWLLEGGPSSGAPPPS-NH2
modifications: not fully specified (residue 16); printed as H-Aib-HGTFTSDYSIYLE-K[(2S)-2-amino-6-[[(2S)-2-amino-6-[[(4S)-4-carboxy-4-[[4-[(19-carboxynonadecanoylamino)methyl]cyclohexanecarbonyl]amino]butanoyl]amino]hexanoyl]amino]hexanoyl]-QAAQEFVQWLLEGGPSSGAPPPS-NH2
B8: Compound No. 19 (peptide)
peptide: H[Aib]QGTFTSDYSIYLEKQAA[Aib]EFVQWLLEGGPSSGAPPPS-NH2
modifications: not fully specified (residue 16); printed as H-Aib-QGTFTSDYSIYLE-K[(2S)-2-amino-6-[[(2S)-2-amino-6-[[(4S)-4-carboxy-4-(19-carboxynonadecanoylamino)butanoyl]amino]hexanoyl]amino]hexanoyl]-QAA-Aib-EFVQWLLEGGPSSGAPPPS-NH2
B9: Compound No. 28 (peptide)
peptide: H[Aib]HGTFTSDYSIYLDKQAA[Aib]EFVQWLLEGGPSSGAPPPS-NH2
modifications: not fully specified (residue 16); printed as H-Aib-HGTFTSDYSIYLD-K[(2S)-2-amino-6-[[(2S)-2-amino-6-[[(4S)-4-carboxy-4-(19-carboxynonadecanoylamino)butanoyl]amino]hexanoyl]amino]hexanoyl]-QAA-Aib-EFVQWLLEGGPSSGAPPPS-NH2
B10: Compound No. 26 (peptide)
peptide: H[Aib]HGTFTSDYSYYLEKQAA[Aib]EFVQWLLEGGPSSGAPPPS-NH2
modifications: not fully specified (residue 16); printed as H-Aib-HGTFTSDYSYYLE-K[(2S)-2-amino-6-[[(2S)-2-amino-6-[[(4S)-4-carboxy-4-(19-carboxynonadecanoylamino)butanoyl]amino]hexanoyl]amino]hexanoyl]-QAA-Aib-EFVQWLLEGGPSSGAPPPS-NH2
B11: Compound No. 31 (peptide)
peptide: H[Aib]HGTFTSDYSYYLEKKAA[Aib]EFVQWLLEGGPSSGAPPPS-NH2
modifications: not fully specified (residue 16); printed as H-Aib-HGTFTSDYSYYLE-K[(2S)-2-amino-6-[[(2S)-2-amino-6-[[(4S)-4-carboxy-4-(19-carboxynonadecanoylamino)butanoyl]amino]hexanoyl]amino]hexanoyl]-KAA-Aib-EFVQWLLEGGPSSGAPPPS-NH2

Legend:
Test in all cases: cell-based or functional assay
[1] = target: human glucagon-like peptide 1 receptor (human, UniProt P43220 24-463)
[2] = target: T1, human glucose-dependent insulinotropic …
[3] = target: human glucagon receptor (human, UniProt P47871 26-477)
Sequence of human glucagon receptor (P47871 26-477): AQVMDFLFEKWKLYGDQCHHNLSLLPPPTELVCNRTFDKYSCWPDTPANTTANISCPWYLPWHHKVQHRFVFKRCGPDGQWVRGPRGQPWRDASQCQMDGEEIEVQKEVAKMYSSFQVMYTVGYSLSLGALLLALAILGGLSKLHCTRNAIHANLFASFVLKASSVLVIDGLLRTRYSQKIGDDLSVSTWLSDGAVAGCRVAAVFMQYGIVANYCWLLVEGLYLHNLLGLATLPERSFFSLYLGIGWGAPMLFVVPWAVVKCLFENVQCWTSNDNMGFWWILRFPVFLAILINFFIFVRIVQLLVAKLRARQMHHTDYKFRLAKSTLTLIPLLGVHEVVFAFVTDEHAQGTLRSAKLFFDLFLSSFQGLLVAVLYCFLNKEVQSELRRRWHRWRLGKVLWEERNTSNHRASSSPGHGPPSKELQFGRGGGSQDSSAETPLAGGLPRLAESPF

Binder | hGLP-1R CRE Luc EC50 (pM) [1] [pM] | hGIPR CRE Luc EC50 (pM) [2] [pM] | hGcgR CRE Luc EC50 (pM) [3] [pM]
B1 | 4.6 | 6.9 | 25.2
B2 | 2 | 7.1 | 48.7
B3 | 5.8 | 7.2 | 9.6
B4 | 5.1 | 8.1 | 147
B5 | 6.8 | 7.7 | 13.1
B6 | 0.8 | 2.5 | 55
B7 | 2 | 5.1 | 18.3
B8 | 1.7 | 55 | 357
B9 | 4.5 | 7.7 | 16.7
B10 | 3.1 | 6.5 | 13.6
B11 | 3 | 9 | 7.7

Source: US20230391845A1, “GLP-1, GIP AND GLUCAGON RECEPTOR TRIPLE AGONISTS” (priority 2020, published 2023)
